Here are results for 1 protein from article PMC7112232, “Computational design of substrate selective inhibition” (PLoS Computational Biology, 2020).

Substrate in the series: NC(=O)[C@@H]1CCCN1C(=O)[C@H](Cc1cnc[nH]1)NC(=O)[C@@H]1CCC(=O)N1
The series is described as follows: RP-HPLC cleavage assay with purified rhPOP, Michaelis-Menten fit (Km). Conditions: occupies the S3-S1' sub-pockets. The format is biochemical, Homo sapiens.

B1: Prolyl Oligopeptidase (POP) (Homo sapiens) (protein)
chain: MLSLQYPDVYRDETAVQDYHGHKICDPYAWLEDPDSEQTKAFVEAQNKITVPFLEQCPIRGLYKERMTELYDYPKYSCHFKKGKRYFYFYNTGLQNQRVLYVQDSLEGEARVFLDPNILSDDGTVALRGYAFSEDGEYFAYGLSASGSDWVTIKFMKVDGAKELPDVLERVKFSCMAWTHDGKGMFYNSYPQQDGKSDGTETSTNLHQKLYYHVLGTDQSEDILCAEFPDEPKWMGGAELSDDGRYVLLSIREGCDPVNRLWYCDLQQESSGIAGILKWVKLIDNFEGEYDYVTNEGTVFTFKTNRQSPNYRVINIDFRDPEESKWKVLVPEHEKDVLEWIACVRSNFLVLCYLHDVKNILQLHDLTTGALLKTFPLDVGSIVGYSGQKKDTEIFYQFTSFLSPGIIYHCDLTKEELEPRVFREVTVKGIDASDYQTVQIFYPSKDGTKIPMFIVHKKGIKLDGSHPAFLYGYGGFNISITPNYSVSRLIFVRHMGGILAVANIRGGGEYGETWHKGGILANKQNCFDDFQCAAEYLIKEGYTSPKRLTINGGSNGGLLVAACANQRPDLFGCVIAQVGVMDMLKFHKYTIGHAWTTDYGCSDSKQHFEWLVKYSPLHNVKLPEADDIQYPSMLLLTADHDDRVVPLHSLKFIATLQYIVGRSRKQSNPLLIHVDTKAGHGAGKPTAKVIEEVSDMFAFIARCLNVDWIP
notes: recombinant human POP (rhPOP), GST moiety removed
B1: the Michaelis constant (Km) was determined as 690 µM.
